In a protein production outcome set (Wang et al. 2014):

Assay: label from the status in PepcDB records

Sequence	protein production
MTKFYKFLISIIILALVCLIFFLAKSNILNLDSLKNLILSSGYFAPLIYIIAFALVPLTFFPDSVLAILGGSIFGLGGGFLYTSIGALIGGSISFFISRILGQSFVEKFENDKLKNIQELLKDNGFLMILLLRLIPLFPFDLISYGAGLTKISYKDFALGTLIGTIPGILVFVNLGAQWITFNKTSIYLSVSLLILFIIVSVFLKKIYINKHLAKEN	failed
MTKILYMVVPCYNEELVLDETSERLKAKYEQLISNNIISPKSRVVYVNDGSKDKTWEKIQEKHNENPMFSGINLSRNRGHQNALLAGLMTVRNLADCVISMDADLQDDINAIDEMLEKFENENCDIVYGVRDNRDTDTVFKRRTAGAFYKLMQGLGSQSVPNHADFRLMSRRALDGLAQFPEQNLFLRGMVPLVGYKSDIVYYKRGERFAGESKYPLKKMISFALDGITSTSAAPMRLIFWIGLIWFLLAIVGAIYIIARHFINGSDVAGWASTMLAIIGFGGANLLALGVIGEYIGKIFLEVKQRPRYLIEDFINED	failed
MTKLERMEHPAYSQLRPVTPSASVVLCPNPGYSSLEGTNSWVIRAPEDPRSIVIDPGPEDEGHLNVLHSKAEEVGLILLTHRHYDHADGAQRFRQLTNAPVRAMDPSYCAGAEEIHDGEIITIDGVTPQIEVVATPGHTRDSVSYFIWSGVPHESTLEGIVSGDTIAGRHTTMISETDGDLGEYLNSLAILEERGKDIPLLPGHGPDGQDVSSFARKYIERRELRLNQIREVWETRGRDVSMKDLIDAIYDDVDPVLRGAAEQSTHVAIRYLQAQEASASN	failed
MTKLSDRLMEIYRLINQAARVADIGTDHAAIPIALLETNKSSFLVATDIGLGPLEKAKEQIELADLDQAKQIVLRLGDGLSVIKASDKIDTVVIAGMGGELIAKIISKIPDYLKNAKFILQPNNEEIDVRKAIEKNGQYIETEKIIYENRHFYEIIVAKRSQQGIVKMTNRELRFGPCLLKHRTSTFKNKWQERLDHSKQIEKILEKSLRTSTKRYDSLQAEIKTIEEALK	not failed
MTKNDNTIFKDIYQLWFTQYKQTVKESTWVTTQRLFRLHILPIFSDYRIAKISIKDCQKAINQWFNAGLAKYHTLMNYVAKVLDYAINIDLISENPAKRVIVPVNKNDRSLEHHHHHH	not failed
MTKTVEMVITGAQVLNVYTREFEATSLWIDHGRIISNLRDEPYIAAQHVDATGQWIVPGMIDAHVHMESSMVAPSELGKVLLQHGVTTIATDPHELANVAGLEHHHHHH	failed
MTKVERLLINYKTLEEFKKFKEYGIQELSMLEELQDNIIENDSTSPFYGIYFGDKLVARMSLYQVNGKSNPYFDNRQDYLELWKLEVLPGYQNRGYGRALVEFAKSFKMPIRTNPRMKSAEFWNKMNFKTVKYDMARDKGEDPLIWHPDMDREMTPGESA	not failed
MTLAVTAQPALAADRGHSVPLRIATYNIHAGAGSDGVFDLDRQAAALRALDADVIGLQEVDVHWGARSQGLDVAGELARRLGMRVSFAPIYSLDPVTAGEPRREYGVAVLSRFPVRSATNHEITRLSTQDENPLPAPAPGFGEVTLKVRGVPVQVFVTHLDYRADPAVRRAQVADTRRIMARERAELPGAHQFLLGDFNAEPAAPELAPLWKELSDAGAGTPATYPAQAPVKRIDYVTAGKDVRIRRTAVPEEPAASDHRPVVADVSLPRRTPGRD	failed
MTLDLFAPQPKTNLLPYDGDVEDYGCFISTAEAEQYFQYFLKHLAWRHDEARLYGKHFITPRQVAWYGDDHYRYAYSGIMRDSLPWDPQLLILKQQIEQTLAERFNSCLANLYQEGTQGMAWHSDGDMSLAKQTTIASLSLGATRKFCFRHLRTKEKIEMQLQSGQLIVMRGETQQHWQHAIMKSQKVIHPRINLTFRQFLLLEHHHHHH	failed
MTLEWEEFLDPYIQAVGELKIKLRGIRKQYRKQNKHSPIEFVTGRVKPIESIKEKMARRGITYATLEHDLQDIAGLRVMVQFVDDVKEVVDILHKRQDMRIIQERDYITHRKASGYRSYHVVVEYTVDTINGAKTILAEIQIRTLAMNFWATIEHSLNYKYQGDFPDEIKKRLEITARIAHQLDEEMGEIRDDIQEAQALFDPLSRKLNDGVGNSDDTDEEYR	not failed
MTLITVVFVAFALLVIFYTNFMTHTLCERKQIAASRQPGVFRVINVCITILLISSYIEIIFHGK	failed
MTLKTFFNFTRIQTLPAALLSPIAGCLFAFWYFGSFHFWPTLLFFIGLASINLFVSAWNNLMDYQKALDPEYKKWNIIVAKSINPKLALNICLALLAIDVVVGLIVLFLTNLAILPIGGLCFLIAIFYTYGPFAFSRFPLGEILAGLCEGFFGFFLAVYINSYDKGYFFINFDRNWFMTWTWDFKILLPILLVGLMCFVQNFNIMFSDNICDLEQDIRNERYTLPYYLKIPLSLKVFTGLYLFAGLCILIAIALGILPIWSLLMSIIALKVIPNIKKFRAKQSKSETFHLQIDNLMLFNASLALTLLLGIIFK	failed
MTLLEAISNAVANQDKVDSQSDYPIPLSHDGIFANLKPKLENPNLGTLVNPISGWGISESDVEVIDLGKKFSSKLKRKLKDTNGFVKDEFVKMLKQFLEKIGEKVGISEAESEMVLGDQAGSEIQILVEKNGFLMGRDVSGLVLKGCISLEMWELVEILISNSLVDHSSYSYLVSNLVEKQRSDLLCVVIKEASDLGATELLSILKYFLCPSKEAISTMAKVREEWESQAMLAIEKVSNTELSKKSKVAEEASILLMVAHDGFSTSELCLHYLLASRNVDEVMFASAVSKLNGNEMGSFIRYLSKWMKKYEMFPQAGPCPKAASKLGLKLCNWVPELTDITKCLGLLIDENFSTLVLYSDLHEELKSIARVADGLASESKLSCFVANVVESLKLGAARN	failed
MTLLVGLGNPTLRYAHTRHNAGFDILDSLVSELDLSFTFSPKHNAFLCVYKDFIFLKPQTYMNLSGESVLSAKNFYKTKELLIVHDDLDLPLGVVRFKNGGGNGGHNGLKSIDLLCSNSYYRLRVGISKGIGVIEHVLSKFHKNEEPLKNAAFEHAKNALKFFIESHDFNAMQNRFTLKKPLKIES	failed
MTLNRILWNYLIAPTVITIAVCGCTTQTPNTQDLIAQSPKDSQLVRTLSARSDSGYSVAYSPSSVGTILASAGAKSIKLWNPNTGKLLRTLSGQAFTVSFSPDGQILASGSQDGSLNLWDVQTGKLIRTLQHSEPVLGVVFSPDGQTLVSNLDLGSIIRLWNWRTGEIIRIKDDPDAYQKGFENFKTQPATFSLDGQTLFATSGSGSMLQSWNLKTSKRTGSFDAKSSINAVAISPDGNTLATGIRDNAIKLWNINDGKLIHTLTGHQGQVRTVAFSPDGTLLASGSSDGTVKLWNATTGKEINTFTAHKEQVWSVAFNPDGKTLASTGQDGSVKIWGVSPQ	failed
MTLQLNFGRVEDMNKSSLTTTALTILRVIAGFLFAAHGWQKFNEFTIAGTQASFTQMGVPGASAVAPIVATLELVGGIALIIGLLTRVFAALLAVNMLGALFLVHAPAGVFVGNGGYELVLLFAGAALALALAGAGRISADAALFGRQSSKLRVLA	failed
MTLRPDPTFYPSAKLAMEGPVEKLAFTLMLSPDASKPDGLAVVDVDPTSEKFGQIVHQLIMPNKGDEFHHFGWNACSSALSPLTGHAFLERRYLIIPGIRSSRIYIVDVKEPLKAKIHKIIEPEEVFAKTGYSRPHTIHCGPEGIYVSTLGGGGEDGTDGPPGIFILDCETFEILGRYEMDRGEQTKHYDFWWNLPRDYMVSSEWGLPPQFENGIVPEDLLSNKYGHKIHFWKLRDRKNVQTIDLGANHQMALEIRPAHDPSKDYGFCGVVVDTTNLQGAIFTWWQKDDGTFEAKKTITIDPVPADADDLPDLLKGFGACPPLVTDIDLSLDDKYLYVACWGLGEMHQYDVSDPMNPVLTGKVEIGGIVKKTPHPNGKTFGYGPQMVEISRDGKRVYWTNSLYSTWDEQFYPGDRGAAMVMANVGENGGLTLDKDFWVDFPAGYRSHQIRLEGGDCSTDSFCYPSV	failed
MTLSRSSADDSTNNANRSYSAVAGTDNKRKRDEDSSDYVGVAESLEMLKKQEIDADHMAASAQQTLISWRSGENSRSLSSSGECSSSNRPESTRLQIFVRMMSGGKTIVIHAEKYDTVEKLHQRIEWKTKIPALEQRVIYKGKQLQRENSLTYYSIEQDASLQLVARMQSTEHPVAWQTIDDIMYTISRMYKGENLQSNINEKIVTFFAMIPVESDESIAKYLNIFSNSSVPAALVMLYASSLERNKSCAKSSVKLFLSNCVALPKNQKNYCLPIVLEFCKLLRKVCPDQKLYVTCRNTLGSMLETFDNPHGVYNDQYETFGVEIFPFFTELTGLLLNELAQNSGPSFCDFQKVSSFWQQLRKVIELKVAFPIPIVLPMQSTALEAEIRHLHRLFGSLLTTMDLCMCRVESSLADKEVGNSETMSSSWSQYLSILKIINSMSNIYQGAKGQLAVMLNKNKVSFSALVVKFAKRGDDHQWIFEYKEATNFEARRHLAMLLFPDVKEDFEEMHEMLIDRSNLLSESFEYIVGASPEALHGGLFMEFKNEEATGPGVLREWFYLVCQEIFNPKNTLFLRSADDFRRFSPNPASKVDPLHPDFFEFTGRVIALALMHKVQVGVLFDRVFFLQLAGLKISLEDIKDTDRIMYNSCKQILEMDPEFFDSNAGLGLTFVLETEELGKRDTIELCPDGKLKAVNSKNRKQYVDLLIERRFATPILEQVKQFSRGFTDMLSHSVPPRSFFKRLYLEDLDGMLRGGENPISIDDWKAHTEYNGFKETDRQIDWFWKILKKMTEEEQRSILFFWTSNKFVPVEGFRGLSSKLYIYRLYEANDRLPLSHTCFYRLCIPRYPTITLMEQRLRLIAQDHVSSSFGKW	failed
MTLTRDSLLTLEAYAKVRRQEHARVIAHKKRRAVSIGNHLRLLFEDETTIRYQIHEMLHIEKIFDEDGIQAELDAYLPLVPDGSNLKATLQIEYENETQRRAALARLVGIEDRVFLRVDDEAPVYAIADEDLERDTAEKTSAVHFLRFELGDAMKAKLKAGAPLSIGCDHPHYPIQAARIDPDVAASLAGDLD	not failed
MTLTSGDKQGNTPGQASDTERWASLIGGGALVLLGLRQASLRGVLTALAGGGLIYQGATKQSTIQQAQEAIGINKPIKVEKTVTINKPADELYRYWHNFENLPTFMKHLKSVKVYNEKRSHWIANAPLGNSVEWDADILEDRENEFISWASAEGADVENSGFVRFQKAPGDVPGQAASRLRGTEVKVVLEYNLPGGALAAVVAKLFGEEPEQQIGDELRRFKMLMEAGEIATTEGQPSGRK	failed
MTLVLILLALIAFIVLSTTRLKLHPFLALLAAALIAGFAYQVPTAEIVKTVTGGFGSILGYIGIVIVLGTIIGVILERSGAAITMAESVIRLLGERFPTLTMSIIGYLVSIPVFCDSGFVILNSLKNALAARMKISTIAMSVALATGLYATHTFVPPTPGPIAAAGNLGLDASLGLVIVVGLVVAFVTAMAGMWWANRFVGKDIPLVDDGQVVQTEEDFSELRARYGKLPSATQAFAPIFVPILLICLGSVAVFPSKPLGEGVLFACLNFLGQPVIALLVGLALACTLLKGQSKREEFHERVVEGIQSAAPILLITGAGGAFGAMLKITPLGDYLGSTLSALGIGLFMPFVVAAALKTAQGSTTVALVTTSALVAPLLPQLGLDSEMGRVLTVMAIGAGAMTVSHANDSFFWVVTQFSRMTVSTAYRAQTLATLVQGIAGMLAVWLLSLVLL	failed
MTLWQLIKAEIRSVLTNPVVTLTVFGGVVFYSFLYPLPYAQQTPREQPIAVVNLDGSQTSLKLERMVDATPQVKIVSRLHTVEDAKQAFLNREITGFLVIPEHFYKDVMLGKSPTLAYAADASYFLVYGTVVEGLAQAGGTLGAQVKVSKMVIEGVPLSLASHNYSAIKLNMKPTFNPTMGYIEYVVPAVFVLILQQTLIMAVGLQTGSQRHGRGYWSQVSTGSLLLVRTLVFIAIYYLLSAYYFGFSFERLSVNHIAKAGELLTMLFPFLLGCCGLGFWLGYLLPRRELVTLVVLVSSMPLIFLAGFIWPVESIPAPLLWIADLSPSTWSIKGFLALNQMGATWQQVAKHWTALWLLVALWGGVAYWIAKRNNKPVVTESLS	failed
